# B1: Variant A2M, bait region SEQ ID NO 129, P01023 24-1474 (protein)
# chain: SVSGKPQYMVLVPSLLHTETTEKGCVLLSYLNETVTVSASLESVRGNRSLFTDLEAENDVLHCVAFAVPKSSSNEEVMFLTVQVKGPTQEFKKRTTVMVKNEDSLVFVQTDKSIYKPGQTVKFRVVSMDENFHPLNELIPLVYIQDPKGNRIAQWQSFQLEGGLKQFSFPLSSEPFQGSYKVVVQKKSGGRTEHPFTVEEFVLPKFEVQVTVPKIITILEEEMNVSVCGLYTYGKPVPGHVTVSICRKYSDASDCHGEDSQAFCEKFSGQLNSHGCFYQQVKTKVFQLKRKEYEMKLHTEAQIQEEGTVVELTGRQSSEITRTITKLSFVKVDSHFRQGIPFFGQVRLVDGKGVPIPNKVIFIRGNEANYYSNATTDEHGLVQFSINTTNVMGTSLTVRVNYKDRSPCYGYQWVSEEHEEAHHTAYLVFSPSKSFVHLEPMSHELPCGHTQTVQAHYILNGGTLLGLKKLSFYYLIMAKGGIVRTGTHGLLVKQEDMKGHFSISIPVKSDIAPVARLLIYAVLPTGDVIGDSAKYDVENCLANKVDLSFSPSQSLPASHAHLRVTAAPQSVCALRAVDQSVLLMKPDAELSASSVYNLLPEKDLTGFPGPLNDQDDEDCINRHNVYINGITYTPVSSTNEKDMYSFLEDMGLKAFTNSKIRKPKMCPQLEQYEMHGPEAIPMSIPTEGEGEGEGIPENFFGVSEDLVVQIVEEPHTKLRKYFPETWIWDLVVVNSAGVAEVGVTVPDTITEWKAGAFCLSEDAGLGISSTASLRAFQPFFVELTMPYSVIRGEAFTLKATVLNYLPKCIRVSVQLEASPAFLAVPVEKEQAPHCICANGRQTVSWAVTPKSLGNVNFTVSAEALESQELCGTEVPSVPEHGRKDTVIKPLLVEPEGLEKETTFNSLLCPSGGEVSEELSLKLPPNVVEESARASVSVLGDILGSAMQNTQNLLQMPYGCGEQNMVLFAPNIYVLDYLNETQQLTPEIKSKAIGYLNTGYQRQLNYKHYDGSYSTFGERYGRNQGNTWLTAFVLKTFAQARAYIFIDEAHITQALIWLSQRQKDNGCFRSSGSLLNNAIKGGVEDEVTLSAYITIALLEIPLTVTHPVVRNALFCLESAWKTAQEGDHGSHVYTKALLAYAFALAGNQDKRKEVLKSLNEEAVKKDNSVHWERPQKPKAPVGHFYEPQAPSAEVEMTSYVLLAYLTAQPAPTSEDLTSATNIVKWITKQQNAQGGFSSTQDTVVALHALSKYGAATFTRTGKAAQVTIQSSGTFSSKFQVDNNNRLLLQQVSLPELPGEYSMKVTGEGCVYLQTSLKYNILPEKEEFPFALGVQTLPQTCDEPKAHTSFQISLSVSYTGSRSASNMAIVDVKMVSGFIPLKPTVKMLERSNHVSRTEVSSNHVLIYLDKVSNQTLSLFFTVLQDVPVRDLKPAIVKVYDYYETDEFAIAEYNAPCSKDLGNADYKDDDDKGASHHHHHH
# Target: Protease Mixtures
# Assay: cell-based or functional assay
binder,measurement,value
B1,"Protease Inhibition (% of WT); Protease Mixtures, IGD Substrate",160 % of WT

# Reference: patent US20230250154A1
